doi:10.1101/2021.05.05.442785 (bioRxiv, 2021)

B2: E. coli methionine S-adenosyltransferase (MAT), recombinant (enzyme)
chain: AKHLFTSESVSEGHPDKIADQISDAVLDAILEQDPKARVACETYVKTGMVLVGGEITTSAWVDIEEITRNTVREIGYVHSDMGFDANSCAVLSAIGKQSPDINQGVDRADPLEQGAGDQGLMFGYATNETDVLMPAPITYAHRLVQRQAEVRKNGTLPWLRPDAKSQVTFQYDDGKIVGIDAVVLSTQHSEEIDQKSLQEAVMEEIIKPILPAEWLTSATKFFINPTGRFVIGGPMGDCGLTGRKIIVDTYGGMARHGGGAFSGKDPSKVDRSAAYAARYVAKNIVAAGLADRCEIQVSYAIGVAEPTSIMVETFGTEKVPSEQLTLLVREFFDLRPYGLIQMLDLLHPIYKETAAYGHFGREHFPWEKTDKAQLLRDAAGLK

Legend:
cryo-EM structure = target: the molecule itself; assay: cryo-EM structure
[1] = target: B2; assay: cryo-EM structure

B1: S-adenosylmethionine lyase (SAMase) of bacteriophage T3, C-terminal His-tagged (enzyme, UniProt P07693 1-152, looked up)
chain: MIFTKEPAHVFYVLVSAFRSNLCDEVNMSRHRHMVSTLRAAPGLYGSVESTDLTGCYREAISSAPTEEKTVRVRCKDKAQALNVARLACNEWEQDCVLVYKSQTHTAGLVYAKGIDGYKAERLPGSFQEVPKGAPLQGCFTIDEFGRRWQVQ
stoichiometry N (cryo-EM structure): 2
binding result [1]: binds

B2
stoichiometry N (cryo-EM structure): 4
